According to patent US20240116985A1 (published 2024):
Each block holds one binder with its values, some of them ahead of it. Starred links: 1 amine or outer side, 2 acyl side, 3 side chain; linkers in the order of their positions; H or OH if unused. Positions of bridges follow the written chain, without caps; N, C: chain ends. Non-standard residues stand in square brackets, D forms with d. Primed or numbered codes have the meaning given here. B5(10) = 2-amino-2-(pent-4-en-1-yl)hept-6-enoic acid, bis(4-pentenyl)glycine, stitching residue bearing both staples, C=CCCCC(CCCC=C)(N[*:1])C(=O)[*:2]; PyrS2(3) = (S)-3-amino-1-((pent-4-en-1-yloxy)carbonyl)pyrrolidine-3-carboxylic acid, stapling residue, C=CCCCOC(=O)N1CC[C@@](N[*:1])(C(=O)[*:2])C1; PyrS2″ = (S)-3-amino-1-((pent-4-en-1-yloxy)carbonyl)pyrrolidine-3-carboxylic acid (stapling residue), C=CCCCOC(=O)N1CC[C@@](N[*:1])(C(=O)[*:2])C1; B5(16) = 2-amino-2-(pent-4-en-1-yl)hept-6-enoic acid = 2,2-bis(4-pentenyl)glycine (stitching residue), C=CCCCC(CCCC=C)(N[*:1])C(=O)[*:2]; B5(23) = 2-amino-2-(pent-4-en-1-yl)hept-6-enoic acid (2,2-bis(4-pentenyl)glycine), stitching residue, C=CCCCC(CCCC=C)(N[*:1])C(=O)[*:2]; PyrS2 = (S)-3-amino-1-((pent-4-en-1-yloxy)carbonyl)pyrrolidine-3-carboxylic acid, C=CCCCOC(=O)N1CC[C@@](N[*:1])(C(=O)[*:2])C1; Phe(2-Cl) = N[C@@H](Cc1ccccc1Cl)C(=O)O; Bta = N[C@@H](Cc1csc2ccccc12)C(=O)O; αAllylPro = C=CC[C@@]1(C(=O)O)CCCN1; tBuAla = CC(C)(C)C[C@H](N)C(=O)O; S8 = C=CCCCCCC[C@](C)(N)C(=O)O; R5 = C=CCCC[C@@](C)(N)C(=O)O

Key:
[1] = biological target: T1, full-length beta-Catenin (Uniprot ID P35222) (Homo sapiens (Human), UniProt P35222 1-781); experiment: fluorescence polarization competition against 5FAM-TCF4(10-53) on full-length beta-catenin
T1 construct: also called bCat
T1 sequence: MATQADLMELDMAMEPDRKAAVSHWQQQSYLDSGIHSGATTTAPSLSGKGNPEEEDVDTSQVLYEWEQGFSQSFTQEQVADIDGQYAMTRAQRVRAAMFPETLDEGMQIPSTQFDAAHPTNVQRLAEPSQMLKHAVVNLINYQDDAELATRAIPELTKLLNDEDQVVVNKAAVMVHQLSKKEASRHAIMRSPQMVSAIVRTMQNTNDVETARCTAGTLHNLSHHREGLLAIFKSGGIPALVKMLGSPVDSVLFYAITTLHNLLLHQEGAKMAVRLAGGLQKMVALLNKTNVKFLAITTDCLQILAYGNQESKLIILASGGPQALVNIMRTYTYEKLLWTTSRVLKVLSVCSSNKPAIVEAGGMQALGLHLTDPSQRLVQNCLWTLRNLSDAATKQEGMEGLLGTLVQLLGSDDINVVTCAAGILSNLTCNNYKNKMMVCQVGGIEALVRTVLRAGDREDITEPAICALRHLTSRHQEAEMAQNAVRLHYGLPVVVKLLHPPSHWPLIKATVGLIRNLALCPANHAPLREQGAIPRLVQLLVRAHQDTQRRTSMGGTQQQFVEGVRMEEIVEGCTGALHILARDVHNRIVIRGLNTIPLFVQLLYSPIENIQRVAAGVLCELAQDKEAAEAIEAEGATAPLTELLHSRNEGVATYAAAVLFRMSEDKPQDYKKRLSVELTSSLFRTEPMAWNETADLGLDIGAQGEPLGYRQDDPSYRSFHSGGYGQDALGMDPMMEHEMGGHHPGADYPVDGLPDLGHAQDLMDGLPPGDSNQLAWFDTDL
Experimental: (§1) The plate was incubated protected from light for 60 minutes at 20° C. prior to read. Reads were performed on a CLARIOstar plate reader (BMG Labtech) in duplicate, and data were fitted to a 1:1 binding model with hill slope using an in-house script. All provided concentrations are final concentrations.

[2] = biological target: T2, full-length beta-Catenin (Uniprot ID P35222) (Homo sapiens (Human), UniProt P35222 2-781); experiment: fluorescence polarization competition, displacement of 5FAM-TCF4 10-53 from full-length beta-catenin
T2 construct: also called bCat; B-Catenin
T2 sequence: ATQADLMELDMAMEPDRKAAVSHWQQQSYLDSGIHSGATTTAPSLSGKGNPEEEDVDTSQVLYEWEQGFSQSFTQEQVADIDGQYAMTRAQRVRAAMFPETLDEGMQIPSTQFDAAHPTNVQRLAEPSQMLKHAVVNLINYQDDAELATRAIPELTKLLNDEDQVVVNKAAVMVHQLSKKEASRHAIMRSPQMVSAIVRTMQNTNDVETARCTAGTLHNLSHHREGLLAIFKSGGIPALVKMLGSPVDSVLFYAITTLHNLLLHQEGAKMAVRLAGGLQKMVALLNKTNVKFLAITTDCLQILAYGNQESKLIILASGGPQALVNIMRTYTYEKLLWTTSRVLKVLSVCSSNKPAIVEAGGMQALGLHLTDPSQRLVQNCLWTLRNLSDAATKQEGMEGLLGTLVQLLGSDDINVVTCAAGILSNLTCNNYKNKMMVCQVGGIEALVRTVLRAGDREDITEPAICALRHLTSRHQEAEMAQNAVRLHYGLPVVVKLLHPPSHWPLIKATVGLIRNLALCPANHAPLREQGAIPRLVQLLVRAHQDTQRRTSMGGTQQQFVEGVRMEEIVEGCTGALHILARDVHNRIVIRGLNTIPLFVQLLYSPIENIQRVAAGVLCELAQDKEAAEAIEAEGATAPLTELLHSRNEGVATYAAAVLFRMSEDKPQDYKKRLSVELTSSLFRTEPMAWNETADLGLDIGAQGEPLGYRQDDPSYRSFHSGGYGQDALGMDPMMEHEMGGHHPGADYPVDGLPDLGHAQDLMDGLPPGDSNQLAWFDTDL
Experimental: as §1

[3] = biological target: T3, B-cat-Halo (beta-catenin HaloTag NanoBRET construct expressed in HEK293 cells) (UniProt P35222 1-781, HaloTag labelled with HaloTag NanoBRET 618 Ligand); experiment: cell-based or functional assay
T3 sequence (looked up): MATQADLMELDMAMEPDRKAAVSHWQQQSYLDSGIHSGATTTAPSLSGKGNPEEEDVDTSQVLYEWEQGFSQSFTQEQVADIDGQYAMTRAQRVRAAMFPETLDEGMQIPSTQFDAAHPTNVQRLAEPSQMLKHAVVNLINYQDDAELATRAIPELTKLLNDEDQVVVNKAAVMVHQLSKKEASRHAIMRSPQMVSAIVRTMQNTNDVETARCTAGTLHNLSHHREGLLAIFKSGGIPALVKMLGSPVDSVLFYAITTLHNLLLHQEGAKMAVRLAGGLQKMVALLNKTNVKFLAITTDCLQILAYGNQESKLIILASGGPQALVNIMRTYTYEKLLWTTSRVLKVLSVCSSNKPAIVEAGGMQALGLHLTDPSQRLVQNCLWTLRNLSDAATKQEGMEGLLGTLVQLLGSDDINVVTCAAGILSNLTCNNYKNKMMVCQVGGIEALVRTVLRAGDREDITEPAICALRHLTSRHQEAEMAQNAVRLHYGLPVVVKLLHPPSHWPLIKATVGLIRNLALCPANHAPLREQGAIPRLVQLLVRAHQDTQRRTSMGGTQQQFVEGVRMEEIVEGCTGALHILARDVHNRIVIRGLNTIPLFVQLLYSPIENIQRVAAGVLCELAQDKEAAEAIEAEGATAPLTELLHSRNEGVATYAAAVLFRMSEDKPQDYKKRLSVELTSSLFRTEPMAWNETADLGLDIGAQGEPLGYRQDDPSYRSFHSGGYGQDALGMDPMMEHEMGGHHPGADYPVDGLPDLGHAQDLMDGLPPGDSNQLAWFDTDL

[4] = biological target: T4, full-length beta-Catenin (Uniprot ID P35222) (Homo sapiens (Human), UniProt P35222 2-781); experiment: fluorescence polarization competition; 10 nM full-length beta-catenin + 10 nM 5FAM-TCF4(10-53) probe, peptide titrated
T4 construct: also called bCat; B-Catenin
T4 sequence: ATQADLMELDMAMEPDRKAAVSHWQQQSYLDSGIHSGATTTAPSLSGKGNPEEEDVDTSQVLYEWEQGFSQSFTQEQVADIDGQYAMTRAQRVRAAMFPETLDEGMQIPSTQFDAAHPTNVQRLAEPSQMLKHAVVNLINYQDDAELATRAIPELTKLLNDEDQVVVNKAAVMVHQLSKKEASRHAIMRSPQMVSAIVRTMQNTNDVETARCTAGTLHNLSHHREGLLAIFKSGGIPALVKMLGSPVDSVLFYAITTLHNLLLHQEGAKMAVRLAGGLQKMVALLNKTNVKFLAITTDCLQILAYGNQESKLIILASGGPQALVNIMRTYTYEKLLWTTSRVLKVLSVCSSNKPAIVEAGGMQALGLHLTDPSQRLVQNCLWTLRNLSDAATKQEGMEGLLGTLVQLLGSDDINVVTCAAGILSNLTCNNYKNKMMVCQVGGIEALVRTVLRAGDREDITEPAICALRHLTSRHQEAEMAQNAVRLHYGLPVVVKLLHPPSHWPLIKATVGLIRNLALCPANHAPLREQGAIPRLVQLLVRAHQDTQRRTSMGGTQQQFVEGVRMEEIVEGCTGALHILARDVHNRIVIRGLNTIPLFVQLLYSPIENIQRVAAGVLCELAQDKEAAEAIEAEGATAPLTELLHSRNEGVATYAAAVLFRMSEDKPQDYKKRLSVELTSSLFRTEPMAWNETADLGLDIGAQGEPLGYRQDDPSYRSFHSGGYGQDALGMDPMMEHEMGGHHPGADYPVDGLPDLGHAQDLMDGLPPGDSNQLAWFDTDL
Experimental: as §1

[5] = biological target: B-cat-Halo (beta-catenin HaloTag construct expressed in HEK293 cells) (UniProt P35222 1-781); experiment: cell-based or functional assay
[6] = biological target: T5, beta-catenin in DLD1 TCF/LEF luciferase reporter cells (UniProt P35222 1-781); experiment: cell-based or functional assay
T5 sequence (looked up): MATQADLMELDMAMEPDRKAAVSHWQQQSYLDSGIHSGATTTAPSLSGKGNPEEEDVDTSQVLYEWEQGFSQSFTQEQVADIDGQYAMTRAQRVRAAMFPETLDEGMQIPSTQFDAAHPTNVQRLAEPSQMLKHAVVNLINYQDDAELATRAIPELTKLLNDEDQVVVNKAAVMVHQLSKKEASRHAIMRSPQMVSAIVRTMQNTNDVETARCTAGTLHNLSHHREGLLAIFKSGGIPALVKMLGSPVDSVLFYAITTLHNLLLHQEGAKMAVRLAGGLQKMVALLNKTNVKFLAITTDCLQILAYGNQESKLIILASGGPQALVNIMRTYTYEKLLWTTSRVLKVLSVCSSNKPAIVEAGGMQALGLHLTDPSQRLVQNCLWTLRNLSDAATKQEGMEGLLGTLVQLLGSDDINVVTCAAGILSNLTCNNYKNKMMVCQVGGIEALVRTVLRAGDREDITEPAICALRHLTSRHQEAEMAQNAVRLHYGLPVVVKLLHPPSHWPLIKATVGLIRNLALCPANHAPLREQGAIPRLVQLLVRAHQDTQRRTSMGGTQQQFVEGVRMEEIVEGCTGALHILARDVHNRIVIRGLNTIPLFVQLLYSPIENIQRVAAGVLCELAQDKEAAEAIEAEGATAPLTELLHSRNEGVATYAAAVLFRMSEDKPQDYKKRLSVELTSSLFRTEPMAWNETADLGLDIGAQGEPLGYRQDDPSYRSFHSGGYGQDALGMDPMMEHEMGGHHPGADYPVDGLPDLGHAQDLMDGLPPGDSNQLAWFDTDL

IC50 [1]: 10 µM
B1: I-1286 (peptide)
peptide: Ac-[αAllylPro]NA[B5(10)]DTAAFL[PyrS2]F[Bta]Q-NH2
modifications: staple 1-4, 4-11; not fully specified; printed as Ac-PL3-Asn-Ala-B5-Asp-Thr-Ala-Ala-Phe-Leu-PyrS2-Phe-BztA-Gln-NH2
notes: Stapled peptide

IC50 [2]: 0.409 µM
B2: I-1183 (peptide)
peptide: Ac-PD[tBuAla][R5]DDAAFN[PyrS2(3)][Phe(2-Cl)][Bta]Q-NH2
modifications: staple 4-11
notes: Stapled peptide, one staple. '2C1F' as printed (2ClF)

NanoBRET % inh @ 10 uM [3]: 55.1%
EC50 [4]: 0.03 µM
Binder: Ac-[αAllylPro]DI[B5(23)]DEAAFQ[S8]F[Bta]Q-NH2 (staple 1-4, 4-11, Stapled (stitched) peptide) [I-407]

NanoBRET Abs IC50 [5]: 9.6 µM
DLD1 4% Abs IC50 [6]: 7.8 µM
B3: I-1019: Ac-PL3-Asp-Npg-B5-Asp-Asp-Ala-Ala-Phe-Ser-PyrS2-2C1F-BztA-Ser-NH2 (peptide)
peptide: Ac-[αAllylPro]D[tBuAla][B5(16)]DDAAFS[PyrS2″][Phe(2-Cl)][Bta]S-NH2
modifications: staple 1-4, 4-11; not fully specified; printed as Ac-PL3-Asp-Npg-B5-Asp-Asp-Ala-Ala-Phe-Ser-PyrS2-2C1F-BztA-Ser-NH2
